Measurements published in US20090018083A1.

How the values were obtained:
[1] = biological target: T1, BCL6-3C BTB domain (human BCL6 residues 5-129 with C8Q/C67R/C84N) (human), P41182; test: ITC in solution, 25° C; conditions: remark: other sources report otherwise
[2] = biological target: T1, BCL6-3C BTB domain (human BCL6 residues …); test: ITC in solution, 25° C; ITC in solution, not SPR; conditions: remark: other sources report otherwise

-TΔS [1]: 16.4 | stoichiometry (SMRT peptides per BCL6 chain) (SMRT peptides per BCL6 chain) [1]: 1.11 | ΔH [1]: -23.2 kcal/mol | Kd [2]: 11.4 µM
B1: SMRT^1414-1430 peptide (SMRT-BBD), no additional N-terminal residues (peptide)
peptide: LVATVKEAGRSIHEIPR
